# Measurements published in EP4785956A2 (CHUGAI SEIYAKU KABUSHIKI KAISHA, dated 2026).
# T1: recombinant cynomolgus monkey C5 (cynomolgus monkey, UniProt P01031 19-1676 (human entry), limits assumed)
# T1 construct: also called cynoC5
# T1 chain: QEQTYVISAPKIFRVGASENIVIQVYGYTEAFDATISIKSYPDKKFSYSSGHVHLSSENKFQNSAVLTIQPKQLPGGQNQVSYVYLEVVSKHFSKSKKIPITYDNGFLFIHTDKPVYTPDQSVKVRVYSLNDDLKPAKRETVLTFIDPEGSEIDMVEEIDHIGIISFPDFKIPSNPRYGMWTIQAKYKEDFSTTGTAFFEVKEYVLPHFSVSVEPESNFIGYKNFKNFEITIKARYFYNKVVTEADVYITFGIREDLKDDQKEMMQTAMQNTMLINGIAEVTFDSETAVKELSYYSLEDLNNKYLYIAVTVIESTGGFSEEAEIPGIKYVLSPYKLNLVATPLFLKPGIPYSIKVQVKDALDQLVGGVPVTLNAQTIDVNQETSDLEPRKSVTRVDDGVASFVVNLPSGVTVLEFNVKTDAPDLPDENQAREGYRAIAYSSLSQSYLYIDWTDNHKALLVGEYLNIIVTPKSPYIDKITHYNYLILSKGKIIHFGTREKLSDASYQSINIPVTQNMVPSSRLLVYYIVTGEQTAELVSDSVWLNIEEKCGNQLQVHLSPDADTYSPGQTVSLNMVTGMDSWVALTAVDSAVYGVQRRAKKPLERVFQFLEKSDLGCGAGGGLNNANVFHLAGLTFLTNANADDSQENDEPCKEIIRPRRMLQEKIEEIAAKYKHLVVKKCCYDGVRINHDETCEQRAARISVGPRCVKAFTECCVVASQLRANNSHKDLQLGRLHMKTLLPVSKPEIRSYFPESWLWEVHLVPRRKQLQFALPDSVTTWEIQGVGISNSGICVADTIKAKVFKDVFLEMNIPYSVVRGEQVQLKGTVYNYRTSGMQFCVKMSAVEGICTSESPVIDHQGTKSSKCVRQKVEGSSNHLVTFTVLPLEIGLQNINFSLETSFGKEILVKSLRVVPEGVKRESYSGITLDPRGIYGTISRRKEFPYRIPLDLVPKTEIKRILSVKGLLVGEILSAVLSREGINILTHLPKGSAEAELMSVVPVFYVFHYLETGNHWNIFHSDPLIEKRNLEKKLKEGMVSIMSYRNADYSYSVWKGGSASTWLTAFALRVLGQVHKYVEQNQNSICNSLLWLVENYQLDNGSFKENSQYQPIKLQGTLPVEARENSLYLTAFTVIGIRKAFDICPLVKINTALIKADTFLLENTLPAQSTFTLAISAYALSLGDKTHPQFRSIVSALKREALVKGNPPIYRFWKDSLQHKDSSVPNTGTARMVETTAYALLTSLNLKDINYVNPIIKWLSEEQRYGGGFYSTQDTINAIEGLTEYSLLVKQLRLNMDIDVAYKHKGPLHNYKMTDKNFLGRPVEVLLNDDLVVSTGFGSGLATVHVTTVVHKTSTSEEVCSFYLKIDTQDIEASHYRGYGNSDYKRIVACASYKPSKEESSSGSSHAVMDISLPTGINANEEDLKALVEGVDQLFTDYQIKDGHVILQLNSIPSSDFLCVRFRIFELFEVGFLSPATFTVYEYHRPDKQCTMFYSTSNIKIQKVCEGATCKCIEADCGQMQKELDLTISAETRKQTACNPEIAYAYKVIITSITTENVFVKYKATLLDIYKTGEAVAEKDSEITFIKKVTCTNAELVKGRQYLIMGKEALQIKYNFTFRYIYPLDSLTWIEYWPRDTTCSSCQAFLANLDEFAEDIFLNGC
# What was measured:
# recombinant human C5 [1] = biological target: T2, recombinant human C5 (human, UniProt P01031 20-1676); assay: SPR (BIACORE T200), antibody captured by ProA/G, recombinant human C5 injected, 37 degrees C, pH7.4; pH 7.4
# T2 construct: The same entry is used here for C5 in normal human serum in the functional rows; also called hC5; rhC5
# recombinant human C5 [2] = biological target: T2, recombinant human C5; assay: SPR (BIACORE T200), antibody captured by ProA/G, recombinant human C5 injected, 37 degrees C, pH5.8; pH 5.8
# [3] = biological target: T1, recombinant cynomolgus monkey C5; assay: SPR (BIACORE T200), antibody captured by ProA/G, recombinant cynoC5 injected, 37 degrees C, pH7.4
# recombinant human C5 [4] = biological target: T2, recombinant human C5; assay: SPR (BIACORE T200), ratio of kd of condition (2) and (1)
Binder,koff (recombinant human C5 [1]) [s⁻¹],kon (recombinant human C5 [1]) [M⁻¹ s⁻¹],koff (recombinant human C5 [2]) [s⁻¹],kon (recombinant human C5 [2]) [M⁻¹ s⁻¹],koff [3] [s⁻¹],kon [3] [M⁻¹ s⁻¹],pH dependency (ratio of dissociation rate at pH5.8 to that at pH7.4) (recombinant human C5 [4])
"CFA0305 (antibody, V domains shown) VH: QSLEESGGDLVKPGASLAVTCTASGFSSSSSYYMCWVRQAPGKGLEWIGCIYTGSGATYYASWAKGRFTISKTSSTTVTLQMTSLTVADTATYFCASDGGYVTPTHAMYLWGPGTLVTVSS VL: DVVMTQTPASVSAAVGGTVTIKCQASQNIGSDLAWYQQKPGQPPRLLIYGASKLASGVSSRFSGSGSGKEFTLTISDLECADAVTYYCQCTFVGSSYGNAFGGGTEVVVK",0.000589,38200,0.0183,42700,0.00067,12100,
"CFA0307 (antibody, V domains shown) VH: QSLEESGGGLVKPGASLTLTCKASGIDFSNFYYICWVRQAPGKGLDLIACIYTVSGYTYYASWAKGRLTISKTSSTTVTLQMTSLTAADTATYFCARDLHAGITNLWGPGTLVTVSS VL: AIEMTQTPFSVSAAVGGTVTIKCQASQNIYSNLAWYQQKPGQRPKLLIYGASNLESGVPSRFKGSGSGTEYTLTISDLECADAATYYCLQGYSYSNVDDAFGGGTEVVVK",0.00263,324000,0.0334,204000,0.00223,290000,
"CFA0366 (antibody, V domains shown) VH: QSLEESGGDLVKPGASLSLTCTAAGLDFSSSYYMCWVRQAPGKGLEWIACIYAGSSGIIYYANWAKGRFTISRPSSTTVTLQMTSLTAADTATYFCATYPTYGDGGHAFNLWGPGTLVTVSS VL: AQVLTQTPSSVSAAVGGTVTINCQSSQSVYSSDYLSWYQQKPGQPPKLLIYEASKLASGVPPRFSGSGSGTQFTLTISGVQCDDAATYYCQGTYYSSGWYFAFGGGTEVVVK",0.00934,1.04e+06,0.0703,935000,0.00904,504000,
"305LO16-SG422 (antibody, V domains shown) VH: QVQLVESGGGLVQPGRSLRLSCAASGFTVHSSYYMAWVRQAPGKGLEWVGAIFTGSGAEYKAEWVKGRFTISRDNSKNTLYLQMNSLRAEDTAVYYCASDAGYDYPTHAMHYWGRGTLVTVSS VL: DIQMTQSPSSLSASVGDRVTITCRASQGISSSLAWYQQKPGKAPKLLIYGASETESGVPSRFSGSGSGTDFTLTISSLQPEDFATYYCQNTKVGSSYGNTFGGGTKVEIKR",,,,,,,21.1
"CFA0501 (antibody, V domains shown) VH: QSVEESGGRLVTPGTPLTLTCTASGFSLSSYYMNWVRQAPGKGLEWIGMIYGSGATYYASWAKGRFTISKTSSTTVDLKMTSLTTEDTATYFCARQIYSGDNNDNFWGPGTLVTVSS VL: AYDMTQTPASVEVAVGGTVTINCQASESISNWLAWYQQKPGQRPKLLIYRASTLASGVSSRFKGSGSGTQFTLTISGVECDDAATYYCQQDYSSSNVDNTFGGGTKVVVE",0.00169,474000,0.0262,150000,0.00156,266000,
"CFA0538 (antibody, V domains shown) VH: QSVEESGGRLVTPGTPLTLTCTASGFSLSSYYMNWVRQAPGKGLEWIGMIYGSGATYYASWAKGRFTISKTSSTTVDLKMTSLTTEDTATYFCARQIYSGDNNDNFWGPGTLVTVSS VL: AYDMTQTPASVEVAVGGTVTINCQASESISNWLAWYQQKPGQRPKLLIYRASTLASGVSSRFKGSGSGTQFTLTISGVECDDAATYYCQQDYSSSNVDNTFGGGTTVVVE",0.00185,473000,0.0301,122000,0.00166,305000,
"CFA0599 (antibody, V domains shown) VH: QSVEESGGRLVTPGTPLTLTCTVSGLSLSDNTMTWVRQAPGKGLEWIGIISFGGDAYYASWAKGRFPISKTSTTVDLRITSPTTEDTATYFCARVGAGNIFWYFDLWGPGTLVTVSS VL: AYDMTQTPASVEVSVGGTVTIKCQASESIYSALAWYQQKPGQPPKLLIYSASTLASGVPSRFKGSGSGTEYTLTISDLECADAATYYCQQYYSSTNVHNSFGGGTTVVVE",0.00281,474000,0.0373,454000,0.00235,542000,
"CFA0666 (antibody, V domains shown) VH: QSVEESGGRLVTPGTPLTLTCTVSGFSLSTYAMGWVRQAPGKGLEWIGTIDTGDNSFYANWAKGRFTISKTSTTVDLKITSPTAEDTATYFCARNDGSVYNLFNLWGPGTLVTVSS VL: DVVMTQTPASVSAAVGGTVTIKCQASENIYSALSWYQQKPGLRPRLLIYYASTLASGVPSRFKGSRSGTEFTLTISDLECADAATYYCQQYYDINSVDNTFGGGTKVVVE",0.000626,365000,0.00939,282000,0.000493,314000,
"CFA0675 (antibody, V domains shown) VH: QSVEESGGRLVTPGTPLTLTCTVSGFSLSTYAMGWVRQAPGKGLEWIGTIDTGDNSFYANWAKGRFTISRTSTTVDLKITSPTAEDTATYFCARNDGSVYNLFNLWGPGTLVTVSS VL: DVVMTQTPASVSAAVGGTVTIKCQASENIYSALSWYQQKPGLRPRLLIYYASTLASGVPSRFKGSRSGTEFTLTISDLECADAASYYCQQYYDINSVDNTFGGGTKVVVE",0.000412,383000,0.00661,389000,0.000378,294000,
"CFA0672 (antibody, V domains shown) VH: QSVEESGGRLVTPGTPLTLTCTASGFSLSGNAINWVRQAPGKGLEWIGCIYTGSDTTYYATWAKGRFTISKTSTTVDLKIASPTTEDTATYFCARGSGLWGPGTLVTVSS VL: DVVMTQTPASVSAPVGGTVTIKCQASQNIYSLLAWYQQKPGQPPKLLIYHTSDLASGVPSRFRGSGSGTEFTLTISDLECADAATYYCQCTAYGSSDVGGTFGGGTTVVVE",0.000183,523000,0.00978,71100,0.00185,641000,
"CFA0330 (antibody, V domains shown) VH: QSLEESGGDLVEPGASLTLTCTASGFSWNSGYDMCWVRQAPGKGLEWIACIYTGSSANTAYANWAKGRFTISKTSSTTVTLQMTGLTAADTATYFCARHDDYFFDLWGPGTLVTVSS VL: DVVMTQTPASVSESVGGTVTINCQASQSIGNNLAWYQQKPGQPPKLLIYDASNLASGVPSRFKGSRSGTEPTLTNTLTISGVQCADVATYYCQSGWYGNSYVAAFGGGTEVVVKR",0.000202,1.66e+06,0.000224,1.22e+06,,,
"CFA0341 (antibody, V domains shown) VH: QSVEESGGRLVTPGTPLTLTCTVSGIDLSSYTMGWVRQAPGKGLECIGYIHSFGSTYYASWAKGRFTISKTSTTVDLEITSPTTEDTATYFCARDVGGSSGWDLWGQGTLVTVSS VL: DVVMTQTPSSVSAAVGGTVTIKCQASENIYSNLAWYQQKPGQPPKRLIYDASDLASGVPSRFSGSGYGTQFTLTISGVQCEDAATYYCQANYDSTSSSFGNVFGGGTEVVVK",9.77e-05,628000,7.39e-05,1.24e+06,,,
